Results from publication PMC8457375 (Chemical Science, 2021).

Tests used:
FADD^DD [1] = molecular target: FADD^DD (UniProt Q13158); assay: ITC
FADD^DD [2] = molecular target: FADD^DD (UniProt Q13158)
FADD^DD [3] = molecular target: T1, FADD^DD (UniProt Q13158 97-181); assay: ITC
T1 sequence: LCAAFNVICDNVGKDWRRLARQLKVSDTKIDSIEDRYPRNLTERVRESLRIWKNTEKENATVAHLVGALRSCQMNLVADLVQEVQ

FADD^DD [4] = molecular target: T1, FADD^DD; assay: cell-based or functional assay

## NleB1^EHEC (enzyme)
FADD^DD [1]
  Kd: 200 nM
FADD^DD [2]
  Km for FADD^DD, glycosylation kinetics: 13 µM

B1: S286Y^SseK1 (enzyme)
chain: MIPPLNRYVPALSKNELVKTVTNRDIQFTSFNGKDYPLCFLDEKTPLLFQWFERNPARFGKNDIPIINTEKNPYLNNIIKAATIEKERLIGIFVDGDFFPGQKDAFSKLEYDYENIKVIYRNDIDFSMYDKKLSEIYMENISKQESMPEEKRDCHLLQLLKKELSDIQEGNDSLIKSYLLDKGHGWFDFYRNMAMLKAGQLFLEADKVGCYDLSTNSGCIYLDADMIITEKLGGIYIPDGIAVHVERIDGRASMENGIIAVDRNNHPALLAGLEIMHTKFDADPYYDGVCNGIRKHFNYSLNEDYNSFCDFIEFKHDNIIMNTSQFTQSSWARHVQ
FADD^DD [3]
  fold by which the Kd of NleB1^EHEC is better: ~6 fold
FADD^DD [4]
  Km for FADD^DD, glycosylation kinetics, fold worse than that of NleB1^EHEC: 4.4 fold

B2: N302Y^SseK2 (enzyme)
chain: MARFNAAFTRIKIMFSRIRGLISCQSNTQTIAPTLSPPSSGHVSFAGIDYPLLPLNHQTPLVFQWFERNPDRFGQNEIPIINTQKNPYLNNIINAAIIEKERIIGIFVDGDFSKGQRKALGKLEQNYRNIKVIYNSDLNYSMYDKKLTTIYLENITKLEAQSASERDEVLLNGVKKSLEDVLKNNPEETLISSHNKDKGHLWFDFYRNLFLLKGSDAFLEAGKPGCHHLQPGGGCIYLDADMLLTDKLGTLYLPDGIAIHVSRKDNHVSLENGIIAVNRSEHPALIKGLEIMHSKPYGDPYYDWLSKGLRHYFDGSHIQDYDAFCDFIEFKHENIIMNTSSLTASSWR
FADD^DD [3]
  fold by which the Kd of NleB1^EHEC is better: ~472 fold
